Source: article PMC10031235 (Protein Science : A Publication of the Protein Society, 2023)

Biological target: the molecule itself
Assay: SEC; size-exclusion chromatography of purified PSAT in solution (Figure S7); conditions not shown

B1: human phosphoserine aminotransferase (PSAT-β) (enzyme)
chain: MDAPRQVVNFGPGPAKLPHSVLLEIQKELLDYKGVGISVLEMSHRSSDFAKIINNTENLVRELLAVPDNYKVIFLQGGGCGQFSAVPLNLIGLKAGRCADYVVTGAWSAKAAEEAKKFGTINIVHPKLGSYTKIPDPSTWNLNPDASYVYYCANETVHGVEFDFIPDVKGAVLVCDMSSNFLSKPVDVSKFGVIFAGAQKNVGSAGVTVVIVRDDLLGFALRECPSVLEYKVQAGNSSLYNTPPCFSIYVMGLVLEWIKNNGGAAAMEKLSSIKSQTIYEIIDNSQGFYVCPVEPQNRSKMNIPFRIGNAKGDDALEKRFLDKALELNMLSLKGHRSVGGIRASLYNAVTIEDVQKLAAFMKKFLEMHQL
modifications: pyridoxal 5'-phosphate covalently bound to Lys200 (internal aldimine); pyridoxamine phosphate in place of PLP in some chains
notes: human phosphoserine aminotransferase, PSAT1 (PSAT-β), wild type, EC 2.6.1.52; gene coding for human PSAT-β cloned in a modified pET28b; electron density continuous from residue 6 to 370; also called PSAT1; human PSAT; source: E. coli BL21(DE3) tuner, purified (IMAC Talon; Superdex 75 before crystallization)
  stoichiometry N: 2
